Experimental data reported in publication PMC3217859, “Protein phosphatase 2a (PP2A) binds within the oligomerization domain of striatin and regulates the phosphorylation and activation of the mammalian Ste20-Like kinase Mst3” (BMC Biochemistry, 2011).

What was measured:
Assay in all cases: co-IP; anti-HA immunoprecipitates (12CA5 with protein A-Sepharose, or F7 anti-HA-agarose when probing for Mst3 or Mst4; 1.5 h, 4°C) of lysates (1% Nonidet P-40, 0.135 M NaCl, 10% glycerol, 20 mM Tris pH 8.0) of HEK293 cells transfected with HA-striatins; endogenous partners by immunoblot, partner/HA-striatin ratio by chemilumimager against wild type; 50 mM NaF and 100 nM okadaic acid in the lysis buffer in the …
Conditions in all cases: partners not purified
[1] = target: T1, HA-tagged F457Stop striatin (human, UniProt O43815 1-456)
T1 construct: striatin, human, C-terminal truncation by a stop codon at F457 (loss of seven of eight WD-repeats); residues 1-456 by the mutant's name; source: HEK293, transfected, in lysate; not shown: HA, N-terminal, kept
T1 sequence (looked up): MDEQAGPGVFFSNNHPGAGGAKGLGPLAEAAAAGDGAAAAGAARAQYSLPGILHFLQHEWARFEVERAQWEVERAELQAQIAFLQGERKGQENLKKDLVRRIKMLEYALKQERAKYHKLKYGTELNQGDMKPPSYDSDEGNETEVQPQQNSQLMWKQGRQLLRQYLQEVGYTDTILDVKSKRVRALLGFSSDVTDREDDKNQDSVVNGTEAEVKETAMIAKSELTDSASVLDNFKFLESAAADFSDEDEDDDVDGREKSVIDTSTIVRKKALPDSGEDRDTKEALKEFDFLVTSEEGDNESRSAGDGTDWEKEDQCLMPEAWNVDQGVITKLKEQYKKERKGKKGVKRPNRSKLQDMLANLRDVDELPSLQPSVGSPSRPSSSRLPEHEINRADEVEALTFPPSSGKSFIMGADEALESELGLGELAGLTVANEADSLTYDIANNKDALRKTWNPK

[2] = target: T2, HA-tagged Δ(70-116) striatin (human, UniProt O43815 1-780, Δ(70-116))
T2 construct: also called coiled-coil deletion mutant; source: HEK293, transfected, in lysate; not shown: HA, N-terminal, kept
T2 sequence (looked up): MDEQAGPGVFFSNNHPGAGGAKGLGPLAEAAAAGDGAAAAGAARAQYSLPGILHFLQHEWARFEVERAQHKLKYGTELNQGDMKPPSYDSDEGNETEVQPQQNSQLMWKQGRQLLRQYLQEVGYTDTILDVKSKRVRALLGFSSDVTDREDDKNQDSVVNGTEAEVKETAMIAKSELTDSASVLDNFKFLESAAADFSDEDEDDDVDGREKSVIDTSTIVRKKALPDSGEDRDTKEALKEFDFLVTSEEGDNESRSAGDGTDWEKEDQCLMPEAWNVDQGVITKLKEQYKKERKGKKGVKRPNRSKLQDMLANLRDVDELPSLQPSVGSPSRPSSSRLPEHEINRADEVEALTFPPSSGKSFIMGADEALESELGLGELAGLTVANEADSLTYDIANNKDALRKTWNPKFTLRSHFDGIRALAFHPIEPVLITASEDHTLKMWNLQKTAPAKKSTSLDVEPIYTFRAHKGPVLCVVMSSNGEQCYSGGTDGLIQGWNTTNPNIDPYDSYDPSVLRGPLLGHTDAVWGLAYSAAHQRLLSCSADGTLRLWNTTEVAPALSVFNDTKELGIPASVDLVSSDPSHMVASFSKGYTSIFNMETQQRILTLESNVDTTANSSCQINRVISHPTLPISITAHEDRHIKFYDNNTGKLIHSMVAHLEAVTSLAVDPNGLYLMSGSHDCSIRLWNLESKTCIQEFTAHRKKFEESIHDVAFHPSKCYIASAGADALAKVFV

[3] = target: T3, HA-tagged Δ(227-309) striatin (human, UniProt O43815 1-780, Δ(227-309))
T3 construct: source: HEK293, transfected, in lysate; not shown: HA, N-terminal, kept
T3 sequence (looked up): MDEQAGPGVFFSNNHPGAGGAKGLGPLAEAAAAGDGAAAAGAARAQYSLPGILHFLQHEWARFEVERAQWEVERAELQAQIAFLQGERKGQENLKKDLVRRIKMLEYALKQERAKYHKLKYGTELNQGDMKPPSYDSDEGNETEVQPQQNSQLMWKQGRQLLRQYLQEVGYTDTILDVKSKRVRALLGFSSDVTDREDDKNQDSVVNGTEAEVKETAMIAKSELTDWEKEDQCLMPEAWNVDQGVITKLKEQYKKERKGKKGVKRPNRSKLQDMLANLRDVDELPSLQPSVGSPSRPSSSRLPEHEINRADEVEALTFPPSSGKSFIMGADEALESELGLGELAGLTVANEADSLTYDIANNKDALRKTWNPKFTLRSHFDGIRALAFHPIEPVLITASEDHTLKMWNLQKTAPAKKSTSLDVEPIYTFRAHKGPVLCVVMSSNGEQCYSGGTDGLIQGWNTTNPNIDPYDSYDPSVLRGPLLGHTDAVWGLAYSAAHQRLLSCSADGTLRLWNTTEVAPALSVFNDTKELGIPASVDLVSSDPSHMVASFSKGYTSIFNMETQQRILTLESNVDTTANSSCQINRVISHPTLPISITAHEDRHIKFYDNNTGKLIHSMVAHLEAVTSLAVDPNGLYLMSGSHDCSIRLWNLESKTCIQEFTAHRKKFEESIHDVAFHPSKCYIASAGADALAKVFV

percent reduction in binding against wild-type striatin [1]: 29% | percent of the wild-type level bound [2]: 40 % of wild-type levels | percent of the wild-type level bound [3]: 75 % of wild-type levels
B1: Mob3/phocein (natural protein, human (endogenous in HEK293), UniProt Q9Y3A3 1-225, looked up)
chain: MVMAEGTAVLRRNRPGTKAQDFYNWPDESFDEMDSTLAVQQYIQQNIRADCSNIDKILEPPEGQDEGVWKYEHLRQFCLELNGLAVKLQSECHPDTCTQMTATEQWIFLCAAHKTPKECPAIDYTRHTLDGAACLLNSNKYFPSRVSIKESSVAKLGSVCRRIYRIFSHAYFHHRQIFDEYENETFLCHRFTKFVMKYNLMSKDNLIVPILEEEVQNSVSGESEA
notes: source: endogenous, HEK293 lysate
